Laboratory results as given in patent US20080305997A1 (UNIVERSITY OF NORTH CAROLINA AT CHARLOTTE, published 2008).

What follows are binders tested against T1, sCD4-HRP (Research Diagnostics Inc.) (UniProt P01730 26-396, limits assumed) (assay: microtiter assay, plate-bound peptide, sCD4-HRP).
T1 construct: extracellular domain

Binder	binding result
SNHQKLALKLLKICKDSKSS (Chemically synthesized (GenScript); coated on the plate) [P4, overlapping synthetic peptide of Salp15 (amino acids 31-50)]	no binding (tested: 0.5 µg peptide coated)
STADKDTKKNNVQLRFPNYI (Chemically synthesized (GenScript); coated on the plate) [P2, overlapping synthetic peptide of Salp15 (amino acids 11-30)]	no binding (tested: 0.5 µg peptide coated)
NVQLRFPNYISNHQKLALKL (Chemically synthesized (GenScript); coated on the plate) [P3, overlapping synthetic peptide of Salp15 (amino acids 21-40)]	no binding (tested: 0.5 µg peptide coated)
LKICKDSKSSHNSLSSRSSD (Chemically synthesized (GenScript); coated on the plate) [P5, overlapping synthetic peptide of Salp15 (amino acids 41-60)]	no binding (tested: 0.5 µg peptide coated)
DVNVTLNLPEDTPCGPNGQT (Chemically synthesized (GenScript); coated on the plate) [P9, overlapping synthetic peptide of Salp15 (amino acids 81-100)]	no binding (tested: 0.5 µg peptide coated)
DTPCGPNGQTCAEKNKCVGH (Chemically synthesized (GenScript); coated on the plate) [P10, overlapping synthetic peptide of Salp15 (amino acids 91-110)]	no binding (tested: 0.5 µg peptide coated)
NCTFLCKHGNDVNVTLNLPE (Chemically synthesized (GenScript)) [P8, overlapping synthetic peptide of Salp15 (amino acids 71-90)]	no binding (tested: 0.5 µg peptide coated)
HNSLSSRSSDVINDKYVDFK (Chemically synthesized (GenScript); coated on the plate) [P6, overlapping synthetic peptide of Salp15 (amino acids 51-70)]	no binding (tested: 0.5 µg peptide coated)
VINDKYVDFKNCTFLCKHGN (Chemically synthesized (GenScript); coated on the plate) [P7, overlapping synthetic peptide of Salp15 (amino acids 61-80)]	no binding (tested: 0.5 µg peptide coated)
NESGPTKADASTADKDTKKN (Chemically synthesized (GenScript); coated on the plate) [P1, overlapping synthetic peptide of Salp15 (amino acids 1-20)]	no binding (tested: 0.5 µg peptide coated)

Each binder was assayed against T1, sCD4-HRP (Research Diagnostics Inc.) (assay: microtiter competition; free P11 added to sCD4-HRP on plate-bound P11).
Procedure: Purified sCD4 was coated overnight at 4° C. at the indicated concentrations in 0.1M sodium carbonate buffer (pH 9.5) in 96 well plates. Equimolar amounts of lysozyme were used as a non-specific control. […] The reaction was stopped by adding TMB stop solution (KPL). […] The wells were washed and blocked prior to incubation with sCD4-HRP (Research Diagnostics Inc., Flanders, N.J., U.S.A.).

Binder	IC50 [nM]
GPNGQTCAEKNKCVGHIPGC (Chemically synthesized (GenScript); also called P11k) [P11, C-terminal peptide of Salp15 (amino acids 95-114)]	1250

Each binder was assayed against T1, sCD4-HRP (Research Diagnostics Inc.) (assay: microtiter assay, increasing concentrations of plate-bound P11, sCD4-HRP, non-linear curve fit).

Binder	Kd [nM]
GPNGQTCAEKNKCVGHIPGC (Chemically synthesized (GenScript); also called P11k) [P11, C-terminal peptide of Salp15 (amino acids 95-114)]	50
